Numbering of substitutions follows the chain as printed.
T1: SK-OV-3细胞上的CD73 (human, UniProt P21589 27-549)
T1 construct: whole, on cells; Endogenous CD73 of the human CD73-positive cell line SK-OV-3; also called 人CD73阳性细胞; SK-OV-3细胞表面的CD73
T1 sequence (looked up): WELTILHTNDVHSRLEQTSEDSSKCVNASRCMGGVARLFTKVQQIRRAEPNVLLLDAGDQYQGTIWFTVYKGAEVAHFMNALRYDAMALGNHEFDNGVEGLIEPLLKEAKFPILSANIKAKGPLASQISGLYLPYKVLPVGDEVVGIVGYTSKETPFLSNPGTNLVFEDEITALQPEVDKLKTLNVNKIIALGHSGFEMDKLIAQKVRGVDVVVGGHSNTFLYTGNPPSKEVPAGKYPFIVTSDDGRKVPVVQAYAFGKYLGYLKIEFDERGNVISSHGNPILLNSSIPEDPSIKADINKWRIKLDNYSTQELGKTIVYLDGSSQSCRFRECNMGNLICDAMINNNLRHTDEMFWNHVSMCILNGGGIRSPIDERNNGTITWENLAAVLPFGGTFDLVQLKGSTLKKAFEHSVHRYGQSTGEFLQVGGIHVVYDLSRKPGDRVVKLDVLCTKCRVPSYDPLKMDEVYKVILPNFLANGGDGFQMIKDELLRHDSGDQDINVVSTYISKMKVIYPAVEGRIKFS

T2: 重组人CD73蛋白 (human, UniProt P21589 27-547, limits assumed)
T2 construct: Coated at 3 ug/ml in the ELISA and used at 5 ug/ml in the enzyme assay; also called rhCD73
T2 sequence (looked up): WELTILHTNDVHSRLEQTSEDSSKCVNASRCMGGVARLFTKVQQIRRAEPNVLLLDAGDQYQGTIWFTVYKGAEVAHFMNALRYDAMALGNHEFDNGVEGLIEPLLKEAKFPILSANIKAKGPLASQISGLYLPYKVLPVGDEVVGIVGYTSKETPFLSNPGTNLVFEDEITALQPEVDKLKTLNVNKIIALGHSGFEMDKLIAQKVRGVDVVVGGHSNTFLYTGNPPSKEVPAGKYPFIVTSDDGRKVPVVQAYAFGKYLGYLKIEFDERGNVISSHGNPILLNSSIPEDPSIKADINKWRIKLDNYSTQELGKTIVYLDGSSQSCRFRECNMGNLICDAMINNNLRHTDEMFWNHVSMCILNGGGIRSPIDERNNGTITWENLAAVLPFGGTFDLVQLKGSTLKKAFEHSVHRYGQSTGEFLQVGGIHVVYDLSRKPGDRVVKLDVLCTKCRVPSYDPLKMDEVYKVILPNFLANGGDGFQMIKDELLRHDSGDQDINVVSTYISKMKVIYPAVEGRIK

B1: 137-4 (antibody, IgG1, V domains shown)
VH: QVQLVQSGAEVKKPGSSVKVSCKASGYSFTGYYIHWVRQAPGQGLEWMGRINPYNGATTYNQNFKDRVTITVDKSTSTAYMELSSLRSEDTAVYYCARFHYGAVDYWGQGTLVTVSS
VL: DIQMTQSPSSLSASVGDRVTITCKASQDINTYLTWYQQKPGKAPKTLIYRANILVDGVPSRFSGSGSGTDFTLTISSLQPEDFATYYCLQYEEFPLTFGGGTKVEIKR
notes: also called 人源化CD73抗体; CQ137人源化抗体; not shown: kappa constant region
B2: 137-5 (antibody, IgG1, V domains shown)
VH: B1 VH with V104A
VL: B1 VL with E92N
notes: as for B1
B3: 137-6 (antibody, IgG1, V domains shown)
VH: B1 VH with V104P, D105E
VL: B1 VL with E92A
notes: as for B1
B4: 137-7 (antibody, IgG1, V domains shown)
VH: B1 VH with V104P, D105N
VL: B1 VL with E92D, E93D
notes: as for B1
B5: 137-8 (antibody, IgG1, V domains shown)
VH: B1 VH with V104P, Y106F
VL: B1 VL with E92D, E93Q
notes: as for B1
B6: 137-9 (antibody, IgG1, V domains shown)
VH: B1 VH with V104P, Y106L
VL: B1 VL with E92D, E93A
notes: as for B1

What follows are binders tested against T1, SK-OV-3细胞上的CD73 (assay: flow cytometry on SK-OV-3 cells, Anti-hFC-APC).

**Q.** Does B1 bind?
**A.** binds

**Q.** Does B2 bind?
**A.** binds

**Q.** Does B3 bind?
**A.** binds

**Q.** Does B4 bind?
**A.** binds

**Q.** Does B5 bind?
**A.** binds

**Q.** Does B6 bind?
**A.** binds

These binders were tested against T2, 重组人CD73蛋白 (assay: ELISA, recombinant human CD73 coated at 3 ug/ml).

**Q.** Does B1 bind?
**A.** binds

**Q.** Does B2 bind?
**A.** binds

**Q.** Does B3 bind?
**A.** binds

**Q.** Does B4 bind?
**A.** binds

**Q.** Does B5 bind?
**A.** binds

**Q.** Does B6 bind?
**A.** binds

— patent publication CN113045659A (NOVOPROTEIN SCIENT INC, dated 2021)
